This is an account of results in paper PMC3123459.

One may read the stoichiometry N as the number of molecules, sites or subunits per partner or assembly.

The assay deals with Acyl-CoA dehydrogenase from Mycobacterium thermoresistibile (Mycobacterium thermoresistibile). In words: crystal structure.

In the case of “Acyl-CoA dehydrogenase from Mycobacterium thermoresistibile (enzyme)”, the stoichiometry N was found to be 4.
